In patent publication US20100216693A1, “COMPOSITIONS AND METHODS OF TREATING DIABETES” (priority 2005, published 2010):
pKd: −log10 of the molar value.

Tests used:
[1] = biological target: Human insulin (Actrapid) (human); assay: SPR (Biacore 3000), insulin 0.25-10 µM over C-terminally immobilized insulin; global fit, analyte with two sites competing for one site on the chip; rapid off rate
[2] = biological target: Human insulin (Actrapid) (human); assay: SPR (Biacore 3000), insulin 0.25-10 µM over C-terminally immobilized insulin; global fit, analyte with two sites competing for one site on the chip; slow off rate

pKd [1]: 5.33 | pKd [2]: 5.57
Substance: Human insulin (Actrapid) (ligand; other documents disagree on this pair)
